According to paper PMC7954794, “Protein context shapes the specificity of SH3 domain-mediated interactions in vivo” (Nature Communications, 2021):

Tested on: growth of yeast strains under 51 stress conditions
Test: Growth assays in 51 stress conditions (Fig. 1E-F, S2D, S5B)
Format: cell-based, Saccharomyces cerevisiae
Design: key to Growth (Fig. S2D) / growth of ABP1 SH3-swapped strains in stress condition: log2 colony size, average of median per strain (growth score)
Settings: for Growth (Fig. S2D): ABP1 SH3-swapped strains
Experimental: All WT, SH3-deleted, KO (except for CDC25 which is the only essential SH3-containing gene in yeast), ABP1 SH3-swapped, and SLA1 SH3-shuffled strains were grown on omnitrays in 1536 formats and robotically manipulated with a pin tool (the DHFR F[1,2] bait strains were used except for the KO strains). Each strain was randomly positioned in 6 replicates per plate and two plates per condition were performed, for 12 replicates per strain in total. A border of two rows and two columns of WT strains (BY4741) around the plate was used to remove border effects. Strains were grown on YPD media for two days at 30 °C. They were then replicated on 51 different media that are described in the Supplementary Table 3 and were incubated at 37 °C in a spImager custom platform with images acquired every two hours for four days. The colony sizes from plate pictures were also measured with the R package “Gitter” and the output was manually inspected. Positions with an abnormality in colony circularity were removed. The colony sizes after 74 h of incubation at 37 °C were log2 transformed and used for the analyses. First, the differences between the two plate replicates were corrected to remove plate effects. The median colony size was calculated for each strain per plate. Strains with a difference in their median colony size of more than two between the two plate replicates were removed. Finally, the average of the median colony size was calculated for each strain per condition (growth score).

B1: BBC1: yeast SH3-containing protein; SH3-deleted or knockout strain (protein, UniProt P47068 1-1157, looked up)
Myosin tail …: MSEPEVPFKVVAQFPYKSDYEDDLNFEKDQEIIVTSVEDAEWYFGEYQDSNGDVIEGIFPKSFVAVQGSEVGKEAESSPNTGSTEQRTIQPEVEQKDLPEPISPETKKETLSGPVPVPAATVPVPAATVPVPAATAVSAQVQHDSSSGNGERKVPMDSPKLKARLSMFNQDITEQVPLPKSTHLDLENIPVKKTIVADAPKYYVPPGIPTNDTSNLERKKSLKENEKKIVPEPINRAQVESGRIETENDQLKKDLPQMSLKERIALLQEQQRLQAAREEELLRKKAKLEQEHERSAVNKNEPYTETEEAEENEKTEPKPEFTPETEHNEEPQMELLAHKEITKTSREADEGTNDIEKEQFLDEYTKENQKVEESQADEARGENVAEESEIGYGHEDREGDNDEEKEEEDSEENRRAALRERMAKLSGASRFGAPVGFNPFGMASGVGNKPSEEPKKKQHKEKEEEEPEQLQELPRAIPVMPFVDPSSNPFFRKSNLSEKNQPTETKTLDPHATTEHEQKQEHGTHAYHNLAAVDNAHPEYSDHDSDEDTDDHEFEDANDGLRKHSMVEQAFQIGNNESENVNSGEKIYPQEPPISHRTAEVSHDIENSSQNTTGNVLPVSSPQTRVARNGSINSLTKSISGENRRKSINEYHDTVSTNSSALTETAQDISMAAPAAPVLSKVSHPEDKVPPHPVPSAPSAPPVPSAPSVPSAPPVPPAPPALSAPSVPPVPPVPPVSSAPPALSAPSIPPVPPTPPAPPAPPAPLALPKHNEVEEHVKSSAPLPPVSEEYHPMPNTAPPLPRAPPVPPATFEFDSEPTATHSHTAPSPPPHQNVTASTPSMMSTQQRVPTSVLSGAEKESRTLPPHVPSLTNRPVDSFHESDTTPKVASIRRSTTHDVGEISNNVKIEFNAQERWWINKSAPPAISNLKLNFLMEIDDHFISKRLHQKWVVRDFYFLFENYSQLRFSLTFNSTSPEKTVTTLQERFPSPVETQSARILDEYAQRFNAKVVEKSHSLINSHIGAKNFVSQIVSEFKDEVIQPIGARTFGATILSYKPEEGIEQLMKSLQKIKPGDILVIRKAKFEAHKKIGKNEIINVGMDSAAPYSSVVTDYDFTKNKFRVIENHEGKIIQNSYKLSHMKSGKLKVFRIVARGYVGW
Bathophenanthroline 0.1uM, D = SH3 deletion (all SH3s deleted for multi-SH3 proteins), log2 colony size, 74 h at 37 °C, n = 12
  relative_to_wt, D_minus_WT: -0.7326
Bathophenanthroline 0.1uM, KO = gene deletion, log2 colony size, 74 h at 37 °C, n = 12
  relative_to_wt, KO_minus_WT: -0.7845
Bathophenanthroline.0.1uM
  Growth (Fig. S2D): 10.8555
Bathophenanthroline.10uM
  Growth (Fig. S2D): 10.7329
Bathophenanthroline.1uM
  Growth (Fig. S2D): 10.8406
CaCl2.100mM
  Growth (Fig. S2D): 10.8635
CaCl2.250mM
  Growth (Fig. S2D): 10.7473
CaCl2.500mM
  Growth (Fig. S2D): 10.2321
Caffein.10mM
  Growth (Fig. S2D): 10.0361
Caffein.2mM
  Growth (Fig. S2D): 11.0328
CdCl2.100uM
  Growth (Fig. S2D): 9.446
CdCl2.10uM
  Growth (Fig. S2D): 10.9111
CdCl2.50uM
  Growth (Fig. S2D): 9.87
CuSO4.1mM
  Growth (Fig. S2D): 10.4195
CuSO4.5mM
  Growth (Fig. S2D): 7.7318
Cycloheximide.0.05.uM
  Growth (Fig. S2D): 11.1604
Cycloheximide.0.2.uM
  Growth (Fig. S2D): 10.7217
Cycloheximide.0.5.uM
  Growth (Fig. S2D): 10.1165
DMSO.2.
  Growth (Fig. S2D): 11.0262
DMSO.6.
  Growth (Fig. S2D): 9.821
DMSO.8.
  Growth (Fig. S2D): 9.042
Ethanol.2.
  Growth (Fig. S2D): 10.863
Ethanol.6.
  Growth (Fig. S2D): 10.43
Ethanol.8.
  Growth (Fig. S2D): 10.2184
Galactose.2.
  Growth (Fig. S2D): 10.7901
Glycerol.2.
  Growth (Fig. S2D): 9.731
Hydroxyurea.25mM
  Growth (Fig. S2D): 10.7777
Hygromycin.190uM
  Growth (Fig. S2D): 11.0445
Hygromycin.19uM
  Growth (Fig. S2D): 11.0769
Hygromycin.95uM
  Growth (Fig. S2D): 11.0543
MMS.0.004.
  Growth (Fig. S2D): 10.9787
MMS.0.02.
  Growth (Fig. S2D): 10.743
MMS.0.04.
  Growth (Fig. S2D): 9.98
Menadione.100uM
  Growth (Fig. S2D): 10.5737
Menadione.200uM
  Growth (Fig. S2D): 10.4364
Menadione.50uM
  Growth (Fig. S2D): 10.8865
NaCl.0.25M
  Growth (Fig. S2D): 10.7759
NaCl.1M
  Growth (Fig. S2D): 9.566
Nitroquinoline.10uM
  Growth (Fig. S2D): 10.676
Nitroquinoline.50uM
  Growth (Fig. S2D): 10.6106
Nystatin.0.01uM
  Growth (Fig. S2D): 10.9601
Nystatin.0.1uM
  Growth (Fig. S2D): 11.003
Raffinose.2.
  Growth (Fig. S2D): 11.0344
Rapamycin.10nM
  Growth (Fig. S2D): 9.767
Rapamycin.50nM
  Growth (Fig. S2D): 9.406
SC.pH3
  Growth (Fig. S2D): 10.4328
SC.pH6
  Growth (Fig. S2D): 11.0565
SDS.0.01.
  Growth (Fig. S2D): 11.0008
SDS.0.02.
  Growth (Fig. S2D): 11.0385
SDS.0.05.
  Growth (Fig. S2D): 10.9076
Sorbitol.10mM
  Growth (Fig. S2D): 11.0218
Sorbitol.1mM
  Growth (Fig. S2D): 10.99
Sorbitol.5mM
  Growth (Fig. S2D): 10.8909

B2: CYK3 (protein, UniProt Q07533 1-885, looked up)
Cytokinesis protein 3: MATNLTSLKPPFKVKARYGWSGQTKGDLGFLEGDIMEVTRIAGSWFYGKLLRNKKCSGYFPHNFVILLEERLNSSTENGRQPSKIVESFEKSNKVVIPPVPSRYSDERPRPKKKLSSSMPNSPKKPVDSLTKARKAKSKEMVNEKNIYNTQSSRHHNNSAPNLPLASHSKPQVRNFEESMNNPLPPLPPLPDLDNMRKTDKRAPKKSYSANDLHMARSSREYNYYKDNQKFYDGFIPEKRYSLEEDSISSGLFSNSQYLNDSACSSENSFALMSDFSATSAGSFARHKYAQSFSDSLQRSQNANGCSTKINDSQEFGDSNASSRNGKMGDILRKIIIPKRNTNIYSSSVSSPKSPKAYPKLPDIQNLNLSATPDEARDWIAVKCHLNRARTLTKYDKHPRYMRALEENRDLILHPQDSIYNGLNTNEVKGNTKPGLVDVELAELNIEYIDKMTWKRCIRDGTMTLDSWAQTTFSARYSTVLEKLRGIYIFCTEMFALTDDNGTSDFSAEPQNLEKILYRKHCTPYELTWLFKKLANSLGITCEIVIGFLKTPSAINWEFKYNHCWLRILVNKEWRFIDVILGNVTNPIHEFVNNRKIKKAENSYFLMAPLEMIYTHIPPREFEQHIVPSIDQLSALYLPLVFPSFFKNELKLYKFSTALSFLEDSEIYECSLEIPNDVEVFASVVIPTDNEEASSAYRNMELALTQIKKQKAESGRRIALIKAVLPPNVNKGSLYIHSGVRGTQTSIANIHPLSMMVPLTHKGSNMKYEFVIKIPSESIQKIELYIVEPQSRYLFVGNEYSFEVIQSPSDGIVYSSDEGPNQNRKQPMAIKSPSGRVHELVKSDPHFPYGTWKGSIKIKEPGVWSALVIADSGIGWSVFAEWLCV
Bathophenanthroline.0.1uM
  Growth (Fig. S2D): 10.8556
Bathophenanthroline.10uM
  Growth (Fig. S2D): 10.6576
Bathophenanthroline.1uM
  Growth (Fig. S2D): 10.8513
CaCl2.100mM
  Growth (Fig. S2D): 10.8897
CaCl2.250mM
  Growth (Fig. S2D): 10.7885
CaCl2.500mM
  Growth (Fig. S2D): 10.3059
Caffein.10mM
  Growth (Fig. S2D): 9.982
Caffein.2mM
  Growth (Fig. S2D): 10.9591
CdCl2.100uM
  Growth (Fig. S2D): 9.489
CdCl2.10uM
  Growth (Fig. S2D): 10.8859
CdCl2.50uM
  Growth (Fig. S2D): 9.907
CuSO4.1mM
  Growth (Fig. S2D): 10.4416
CuSO4.5mM
  Growth (Fig. S2D): 8.067
Cycloheximide.0.05.uM
  Growth (Fig. S2D): 11.0397
Cycloheximide.0.2.uM
  Growth (Fig. S2D): 10.6845
Cycloheximide.0.5.uM
  Growth (Fig. S2D): 10.0538
DMSO.2.
  Growth (Fig. S2D): 11.074
DMSO.6.
  Growth (Fig. S2D): 9.997
DMSO.8.
  Growth (Fig. S2D): 9.341
Ethanol.2.
  Growth (Fig. S2D): 10.829
Ethanol.6.
  Growth (Fig. S2D): 10.3434
Ethanol.8.
  Growth (Fig. S2D): 10.1675
Galactose.2.
  Growth (Fig. S2D): 10.8951
Glycerol.2.
  Growth (Fig. S2D): 9.685
Hydroxyurea.25mM
  Growth (Fig. S2D): 10.7817
Hygromycin.190uM
  Growth (Fig. S2D): 10.9791
Hygromycin.19uM
  Growth (Fig. S2D): 10.9621
Hygromycin.95uM
  Growth (Fig. S2D): 11.0521
MMS.0.004.
  Growth (Fig. S2D): 10.9601
MMS.0.02.
  Growth (Fig. S2D): 10.7185
MMS.0.04.
  Growth (Fig. S2D): 9.916
Menadione.100uM
  Growth (Fig. S2D): 10.6134
Menadione.200uM
  Growth (Fig. S2D): 10.436
Menadione.50uM
  Growth (Fig. S2D): 10.8202
NaCl.0.25M
  Growth (Fig. S2D): 10.7906
NaCl.1M
  Growth (Fig. S2D): 9.617
Nitroquinoline.10uM
  Growth (Fig. S2D): 10.7078
Nitroquinoline.50uM
  Growth (Fig. S2D): 10.6701
Nystatin.0.01uM
  Growth (Fig. S2D): 11.0601
Nystatin.0.1uM
  Growth (Fig. S2D): 11.0266
Raffinose.2.
  Growth (Fig. S2D): 11.0502
Rapamycin.10nM
  Growth (Fig. S2D): 9.888
Rapamycin.50nM
  Growth (Fig. S2D): 9.494
SC.pH3
  Growth (Fig. S2D): 10.4532
SC.pH6
  Growth (Fig. S2D): 11.0119
SDS.0.01.
  Growth (Fig. S2D): 11.0053
SDS.0.02.
  Growth (Fig. S2D): 10.9934
SDS.0.05.
  Growth (Fig. S2D): 10.9282
Sorbitol.10mM
  Growth (Fig. S2D): 11.048
Sorbitol.1mM
  Growth (Fig. S2D): 11.0333
Sorbitol.5mM
  Growth (Fig. S2D): 10.9546
